Reference: patent US20170058036A1 (published 2017)

T1: human dual endothelin-1/VEGF signal peptide receptor (DEspR) on intact cells (human, UniProt B0L3A2 1-85)
T1 construct: also called hDEspR; DEAR
T1 sequence: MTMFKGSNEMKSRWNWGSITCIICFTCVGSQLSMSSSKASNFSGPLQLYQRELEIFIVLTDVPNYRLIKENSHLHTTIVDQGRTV


Key:
[1] = molecular target: T1, human dual endothelin-1/VEGF signal …; test: saturation binding of AF568-labelled mAb to DEspR+ Panc1 cells, FACS
Description: Saturation binding curves of monoclonal antibody (mAb) binding to DEspR on Panc1 CSCs. […] Specific binding was determined by FACS analysis using 100,000 cells in 0.25 ml containing increasing concentrations of mAbs. Incubations were done at 4° C. for 20 min and immediately subjected to FACS analysis on a BDTM LSRII Flow cytometer. Each data point was performed in duplicate.
Fully human VH5/VK1 has a slightly better Kd than VH3/VK2 fully human composite antibodies. […] (FIG. 16).

[2] = molecular target: rat DEspR on rat neutrophils (rat); test: cell-based or functional assay
[3] = molecular target: rat DEspR on rat neutrophils (rat); test: cell-based or functional assay; remark: listed apart in the source
[4] = molecular target: T1, human dual endothelin-1/VEGF signal …; test: FACS, binding to DEspR on intact human cells at 4° C
Description: (§1) Binding was quantified by FACS with corresponding isotype labeled antibodies as background controls. […] Furthermore, 6G8 humanized monoclonal antibodies were developed using two different human IgG Fc regions-human IgG1 and hinge-stabilized human IgG4, thus affirming high-affinity binding.
Binding was determined by FACS analysis.
(§2) Neutrophils (50000/well) were incubated in the absence or presence of mAbs at 37° C. × 4 hrs and live cells counted by using Trypan blue. HUVEC-dependent angiogenesis (20,000 cells/well) was performed as described in the presence or absence of mAbs. Number of polygons and number of branch points were determined after 14 hrs of incubation at 37° C. ND, not done, indeterminate, value greater than upper limit of max dose used in these experiments.

[5] = molecular target: T1, human dual endothelin-1/VEGF signal …; test: FACS, AF-568-labeled mAb on Panc1 cells
Description: as §1, §2

Row | Kd [1] [nM] | EC50 [4] [nM] | EC50 [5] [nM] | Binder | Rat activated Neutrophil survival, IC50 [2] [µg/mL] | Rat Neutrophil survival, IC50 [3] [µg/mL]
1 | ~33 |  |  | 6G8G7 murine anti-DEspR monoclonal antibody (antibody, V domains shown) VH: EVQLQESGGGLVQPGGSLKLSCAASGFDFSRYWMSWVRQAPGKGLEWIGEINPDSSTINYTPSLKDKFIISRDTAKKTLYLQMSKVRSEDTALYYCARHGRGMDYWSQGTSVTVSS VL: DIVLTQTNQIMSASVGDRVSVTCKASQNVDSNVAWYQQKPGHSPKALIYSASYRYSRVPDRITGSGSGTDFTLTITNVQSKDLADYFCQQYHSYPLLAFGAGTKLELKR |  | 
2 | ~33 |  |  | 7C5B2 murine anti-human DEspR monoclonal antibody (antibody, V domains shown, Murine hybridoma antibody raised against the 9-aa N-terminal peptide of DEspR; An IgG2b isotype control was used with it; It was AF568-labelled in the FACS and imaging assays; also called 7C5-murine monoclonal antibody; lead mouse prototype anti-human DEspR monoclonal antibody) VH: QVQLKESGPGLVAPSQSLSITCTVSGFSLKSYAVSWVRQPPGKGLEWLGVIWGDGSTDYHSALISRLSISKDNSKSQFFLRLNSLQTDDTATYYCARGTGTGFAYWGQGTLVTVSA VL: DVVMTQTPLSLPVSLGDQASISCRSSQSLVHSNGNTYLHWYLQKPGQSPKLLIYKVSNRFSGVPDRFSGSGSGTDFTLKISRVEAEDLGIYFCSQCTHIPWTFGGGTNLEIK |  | 
3 |  | 21.1 | 21.1 | 6g8g7-derived IgG4 humanized monoclonal antibody 1 (antibody, Hinge-stabilized (S228P) human IgG4 / kappa, transiently expressed in HEK293; also called 6g8^IgG4 humab1; 6g8IgG4 humab1) heavy: not shown light: DIVLTQSPDILSVSLGERATVNCKASQNVDSNVAWYQQKPGHPPKLLIYSASYRYSRVPDRISGSGSGTDFTLTISNLQAEDVAVYYCQQYHSYPLLAFGAGTKLELKRTVAAPSVFIFPPSDEQLKSGTASVVCLLNNFYPREAKVQWKVDNALQSGNSQESVTEQDSKDSTYSLSSTLTLSKADYEKHKVYACEVTHQGLSSPVTKSFNRGEC | 1.16 | 1.16
4 |  |  |  | IgG1 6G8G7 humanized monoclonal antibody (antibody) heavy: not shown light: DIVLTQSPDILSVSLGERATVNCKASQNVDSNVAWYQQKPGHPPKLLIYSASYRYSRVPDRISGSGSGTDFTLTISNLQAEDVAVYYCQQYHSYPLLAFGAGTKLELKRTVAAPSVFIFPPSDEQLKSGTASVVCLLNNFYPREAKVQWKVDNALQSGNSQESVTEQDSKDSTYSLSSTLTLSKADYEKHKVYACEVTHQGLSSPVTKSFNRGEC | 6.98 | 6.98
